Experiments:
Test in all cases: SEC-MALS; purified NACHOs; oligomeric state; conditions not given
[1] = target: tetrabrachion-stabilised recombinant N2 NA (NACHO) of A/ANKARA/2396/2015 (not stated | influenza A virus (H3N2) A/ANKARA/2396/2015)
[2] = target: tetrabrachion-stabilised recombinant N2 NA (NACHO) of A/BRISBANE/273/2016 (not stated | influenza A virus (H3N2) A/BRISBANE/273/2016)
[3] = target: tetrabrachion-stabilised recombinant N2 NA (NACHO) of A/CATALONIA/9503S/2017 (not stated | influenza A virus (H3N2) A/CATALONIA/9503S/2017)
[4] = target: tetrabrachion-stabilised recombinant N2 NA (NACHO) of A/HATAY/4990/2016 (not stated | influenza A virus (H3N2) A/HATAY/4990/2016)
[5] = target: tetrabrachion-stabilised recombinant N2 NA (NACHO) of A/HONGKONG/4801/2014 (not stated | influenza A virus (H3N2) A/HONGKONG/4801/2014)
[6] = target: tetrabrachion-stabilised recombinant N2 NA (NACHO) of A/PARIS/2379/2014 (not stated | influenza A virus (H3N2) A/PARIS/2379/2014)
[7] = target: tetrabrachion-stabilised recombinant N2 NA (NACHO) of A/SINGAPORE/INFIMH160019/2016 (not stated | influenza A virus (H3N2) A/SINGAPORE/INFIMH160019/2016)
[8] = target: tetrabrachion-stabilised recombinant N2 NA (NACHO) of A/STOCKHOLM/14/2012 (not stated | influenza A virus (H3N2) A/STOCKHOLM/14/2012)
[9] = target: tetrabrachion-stabilised recombinant N2 NA (NACHO) of A/TEXAS/50/2012 (not stated | influenza A virus (H3N2) A/TEXAS/50/2012)
[10] = target: tetrabrachion-stabilised recombinant N2 NA (NACHO) of A/VICTORIA/361/2011 (not stated | influenza A virus (H3N2) A/VICTORIA/361/2011)

Work on “tetrabrachion-stabilised recombinant N2 NA (NACHO) of A/ANKARA/2396/2015 (enzyme)” yielded a stoichiometry N [1] of 4.
“tetrabrachion-stabilised recombinant N2 NA (NACHO) of A/BRISBANE/273/2016 (enzyme)” showed a stoichiometry N [2] of 4.
“tetrabrachion-stabilised recombinant N2 NA (NACHO) of A/CATALONIA/9503S/2017 (enzyme)” gave a stoichiometry N [3] of 4.
“tetrabrachion-stabilised recombinant N2 NA (NACHO) of A/HATAY/4990/2016 (enzyme)” gave a stoichiometry N [4] of 4.
With “tetrabrachion-stabilised recombinant N2 NA (NACHO) of A/HONGKONG/4801/2014 (enzyme)” the stoichiometry N [5] was 4.
Work on “tetrabrachion-stabilised recombinant N2 NA (NACHO) of A/PARIS/2379/2014 (enzyme)” yielded a stoichiometry N [6] of 4.
For “tetrabrachion-stabilised recombinant N2 NA (NACHO) of A/SINGAPORE/INFIMH160019/2016 (enzyme)”, the stoichiometry N [7] was 4.
For “tetrabrachion-stabilised recombinant N2 NA (NACHO) of A/STOCKHOLM/14/2012 (enzyme)”, the stoichiometry N [8] was 4.
“tetrabrachion-stabilised recombinant N2 NA (NACHO) of A/TEXAS/50/2012 (enzyme)” gave a stoichiometry N [9] of 4.
In the case of “tetrabrachion-stabilised recombinant N2 NA (NACHO) of A/VICTORIA/361/2011 (enzyme)”, the stoichiometry N [10] is reported as 4.

— paper PMC11132685
